# Reference: the supplement of paper PMC10567573
# B1: RSPH3 (parent)
# chain: KAASLARNLAKRRRTYLGGAAGRS
# B2: SLC22A15 (parent)
# chain: IAQYALLGYFIRSWRTLAILVNLQ
# Variants of: B1
# Test: protein stability index of a GFP-peptide fusion (GPS, HEK-293T) (PSI 1-6); higher = more stable
# Settings: c terminus: a fixed tail appended
# 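Further: lentivirally expressed fusions sorted by FACS into six bins by GFP to DsRed ratio, PSI derived from sequencing read proportions per bin multiplied by bin number.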
row,Variant,protein stability index
1,G22N,3.29
2,G22W,1.44
3,G22L,2.42
4,G22D,2.03
5,G22K,2.05
6,G22F,2.17
7,G22Y,2
8,G22H,1.44
9,S24K,2
10,S24L,2.04
11,S24F,1.94
12,S24D,3.31
13,S24Q,3.37
14,S24P,1.83
15,S24A,2.7
16,S24R,2.32
17,S24I,3.4
18,S24M,2.2
19,S24E,2.01
20,S24C,2.11
21,S24H,2.41
22,S24N,1.85
23,T15V,1.91
24,T15M,3.14

row,Variant,protein stability index
1,T15D,2.17
2,T15Y,1.29
3,T15H,2.09
4,T15F,2.31
5,A2T,3.68
6,A2I,1.71
7,A2R,3.91
8,A2G,3
9,A2F,2.08
10,A2N,3.47
11,A2S,3.04
12,A2Q,3.13
13,N8S,2.88
14,N8D,3.23
15,N8Y,3.42
16,N8K,2.52
17,N8F,2.33
18,N8L,2.26
19,N8Q,1.35
20,N8G,3.98
21,A6S,3.07
22,A6C,1.06
23,A6Y,1.94
24,A6K,2.4

row,Variant,protein stability index
1,A6G,3.27
2,A6H,2.2
3,A6M,2.52
4,A6F,2.23
5,A6P,3.94
6,A6R,2.56
7,A6W,1.58
8,R13D,3.58
9,R13A,1.51
10,R13G,2.11
11,R13S,2.52
12,R13T,2.4
13,R13N,3.36
14,R13W,2.91
15,R13V,1.92
16,R13F,3.92
17,R13M,3.77
18,R7S,2.58
19,R7L,2.51
20,R7E,4.36
21,R7T,2.08
22,R7N,3.59
23,R7G,2.54
24,R7V,1.98

row,Variant,protein stability index
1,R7D,3.83
2,K11P,2.89
3,K11F,1.92
4,K11N,2.36
5,K11G,2.49
6,K11R,2.91
7,K11A,1.64
8,K11T,1.56
9,K11Q,1.98
10,K11W,1.71
11,K11I,2.78
12,S4C,1.98
13,S4Y,1.48
14,S4A,1.89
15,S4R,2.82
16,S4N,3.2
17,S4E,1.99
18,S4V,2.36
19,S4G,3.32
20,S4I,1.83
21,S4D,3.47
22,S4H,2.32
23,S4Q,2.36
24,S4W,1.89

row,Variant,protein stability index
1,A21K,3.2
2,A21R,1.71
3,A21I,1.91
4,A21P,2.68
5,A21D,2.69
6,A21W,1.7
7,A21V,2.25
8,A21E,3.14
9,G19I,1.87
10,G19A,2.32
11,G19R,2.93
12,G19P,1.46
13,G19T,2.38
14,G19W,1.67
15,G19Q,3.22
16,G19S,3.14
17,G19E,2.13
18,G19F,2.03
19,G19H,2.59
20,G19C,1.97
21,G19N,2.68
22,A20V,2.6
23,A20G,3.39
24,A20W,2.48

row,Variant,protein stability index
1,A20R,2.98
2,A20E,2.45
3,A20M,2.42
4,A20S,1.72
5,A20H,2.59
6,A20T,2.35
7,A20D,3.98
8,R14E,2.66
9,R14N,1.99
10,R14Q,2.57
11,R14F,1.02
12,R14G,1.73
13,R14S,3.11
14,R14D,1.41
15,R14L,1.84
16,R14V,2.24
17,R14C,2.96
18,R23H,2.37
19,R23L,1.83
20,R23F,1.63
21,R23G,1.85
22,R23V,2.15
23,R23D,2.61
24,R23Q,1.23

row,Variant,protein stability index
1,R23K,2.14
2,R23P,2.83
3,R23M,2
4,R23C,1.99
5,R23I,1.59
6,R23W,1.61
7,R12Y,1.18
8,R12I,2.24
9,R12H,2.41
10,R12C,2.46
11,R12F,1.68
12,R12G,2.75
13,R12Q,2.24
14,R12N,2.4
15,R12K,2.9
16,G18L,2.32
17,G18V,2.36
18,G18A,2.25
19,G18F,1.78
20,G18M,2.5
21,G18K,2.35
22,G18I,2.86
23,G18S,1.69
24,G18T,1.97

row,Variant,protein stability index
1,G18E,2.45
2,G18H,3.07
3,G18Y,3.11
4,Y16A,3.41
5,Y16L,2.29
6,Y16P,3.04
7,Y16K,2.49
8,Y16F,3.2
9,Y16E,1.86
10,Y16H,3.32
11,Y16V,2.17
12,Y16M,2.26
13,Y16G,3.03
14,Y16Q,2.81
15,L17G,2.66
16,L17W,1.69
17,L17F,2.05
18,L17E,2.32
19,L17S,2.75
20,L17M,2.64
21,L17R,3.44
22,L17K,4.17
23,L17H,3.26
24,L17Y,3.3

row,Variant,protein stability index
1,L17N,3.18
2,A3Q,3.71
3,A3K,2.68
4,A3F,1.01
5,A3R,3.01
6,A3E,3.16
7,A3Y,1.74
8,A3H,3.48
9,A3N,2.69
10,A3D,3.02
11,A3G,3.72
12,A3P,3.96
13,A10S,2.91
14,A10C,1.98
15,A10H,3.15
16,A10T,3.17
17,A10D,3.14
18,A10V,2.43
19,A10F,1.29
20,A10N,2.64
21,A10G,4.07
22,L5V,4.21
23,L5F,2.56
24,L5M,2.33

row,Variant,protein stability index
1,L5D,4.65
2,L5G,4.8
3,L5C,2.89
4,L5W,2.58
5,L5Q,4.14
6,L5T,3.96
7,L5I,2.58
8,L5A,4.18
9,L9N,4.46
10,L9W,2.38
11,L9E,4.34
12,L9P,3.94
13,L9F,2.44
14,L9R,4.9
15,L9A,3.41
16,L9K,4.94

# Variants of: B2
# Test: as above
# Settings: c terminus: a fixed tail appended
row,Variant,protein stability index
1,L6F,2.34
2,L6I,3.23
3,L6Y,2.49
4,L6K,2.31
5,L6Q,2.46
6,L6E,2.55
7,L6M,3.42
8,L6R,4.15
9,L6N,2.26
10,L6S,2.22
11,L6P,2.95
12,L6T,4.1
13,L6H,1.67
14,L6G,4.36
15,I11C,2.6
16,I11A,2.96
17,G8V,2.97
18,G8Y,1.76
19,G8M,3.1
20,G8C,2.42
21,G8P,1.82
22,G8I,3.12
23,G8N,1.67
24,G8S,3.52
25,G8F,2.71
26,G8L,1.88

row,Variant,protein stability index
1,G8Q,3.07
2,G8H,2.21
3,G8E,1.83
4,G8K,1.71
5,Q3D,2.29
6,Q3V,4.91
7,Q3K,1.96
8,Q3G,3.38
9,Q3L,3.15
10,Q3R,4.63
11,Q3C,3.46
12,Q3A,3.14
13,Q3H,2.13
14,Y9I,2.71
15,Y9C,2.75
16,Y9K,1.29
17,Y9D,2.57
18,Y9Q,4.48
19,Y9G,3.34
20,Y9W,2.92
21,Y9A,1.47
22,Y9E,2.03
23,Y9N,2.22
24,A2G,2.41
25,A2R,3.65
26,A2P,4.19

row,Variant,protein stability index
1,A2S,2.1
2,A2K,2.18
3,A2F,1.95
4,A2N,4.69
5,A2M,3.88
6,A2T,3.18
7,A2H,2.48
8,A2V,2.88
9,A2I,3.22
10,A2E,2.65
11,I1V,2.17
12,I1D,2.92
13,I1N,4.39
14,I1P,1.52
15,Y4P,4.01
16,Y4F,3.81
17,Y4I,1.57
18,Y4N,4.26
19,Y4E,3.39
20,Y4C,3.29
21,Y4Q,2.44
22,Y4A,3
23,Y4W,2.78
24,L7D,2.67
25,L7S,3.26
26,L7M,2.97

row,Variant,protein stability index
1,L7Y,2.5
2,L7Q,2.52
3,L7I,1.71
4,L7N,3.3
5,L7W,2.78
6,L7C,3.99
7,F10G,1.67
8,F10A,3.58
9,F10K,2.44
10,F10H,3.27
11,F10E,4.46
12,F10Q,3.4
13,F10T,4.13
14,F10L,3.4
15,F10P,2.24
16,F10V,3.1
17,F10I,4.57
18,F10C,2.86
19,A5G,3.8
20,A5S,2.48
21,A5R,2.33
22,A5K,2.1
23,A5I,2.52
24,A5E,1.82
